This is an account of results in PMC9902655.

The experiment has as its target human adiponectin (ADPN) from egg white of OVA ADPN knock-in chickens (human) (UniProt Q15848). Kind of experiment: non-reducing SDS-PAGE and Western blot; crude egg white of KI hens 0090 and 0141, diluted, in RIPA buffer and Laemmli sample buffer, 95°C 5 min, 10% gel, non-reducing; anti-adiponectin blot; under reducing conditions the multimer bands decreased and the monomer band increased. A general note: Immunoblotting shows a protein as a band on a membrane.

Several values for one entry are separate records, joined by “and”; a condition that tells them apart may be missing. Identical values can stand only once.

Consider “human adiponectin (ADPN) from egg white of OVA ADPN knock-in chickens (from UniProt Q15848 19-244) (natural protein)”, for which the stoichiometry N is 3 and 6.

Usually stoichiometry N stands for a count of units in the complex or per binding partner.
